Laboratory results from article PMC10273302 (Science (New York, N.Y.), 2023).

Target: T1, EBV minimal peptide PPSTSSKLRPRWTFT (spotted for dot blot) (Human herpesvirus 4 (Epstein-Barr …))
T1 construct: also called EBV gp350 minimal peptide; 72153; source: "recombinant peptide" spotted on nitrocellulose
T1 chain: PPSTSSKLRPRWTFT
Test: far-Western, overlay or dot blot
Conditions: one partner purified

B1: EBV_c9 (antibody, V domains shown)
VH: QVQLVQSGAEVKKPGASVKISCKASGYNFTNYYMHWVRQAPGQGLEWMGVINPHDNTNYAQKFRGRFIVTKDTSTTTLHMELRGLRSEDTAVYYCARGPDYVGISSPFDYWGQGTLVTVSS
VL: SHELTQPPSVPVSPGQTARITCSGDGLPKNYAYWYQQKSGQAPVLVIYEDRKRPSGIPERFSGSSSGTMATLTISGAQVEDEADYYCYSGDSNGNHWVFGGGTKLTVL
notes: recombinant human IgG
B1: binds.

B2: EBV_c61 (antibody, V domains shown)
VH: QVQLVQSGAEVKKPGASVKVSCKASGYNFTNYFMHWVRQAPGQGLEWMGVLNSGANTNYAQKFRGRFIVTRDTSTTTLHMELRSLRSEDTAVYYCARGPDSSGISSPFDYWGQGTLVTVSS
VL: SHELTQPPSVPVSPGQTARITCSGDGLPKNFAYWYQKKSGQAPVLVIYEDRKRPSGIPERFSGSSSGTTATLTISGAQEDDEAEYYCYSGDTNGNHWVFGGGTKLTVL
notes: recombinant human IgG
B2: binds.

B3: EBV_c19 (antibody, V domains shown)
VH: QVQLVQSGAEVKKPGASVKLSCKASGYNFTNYYMHWVRQAPGQGLEWMGVINHGGLTNYAQRFRGRFIVTRDTSTTTLHMELRSLRSEDTAVYYCARGPDYGGNSSPFDNWGQGTLVTVSS
VL: SHELTQPPSVPVSPGQTARITCSGDGLPKNYAYWYQQKSGQAPVLVIYEDRKRPSGIPERFSGSSSGTMATLTISGAQVEDEADYYCYSGDINGNHWVFGGGTKLTVL
notes: recombinant human IgG
B3: binds.

B4: EBV_c149 (antibody, V domains shown)
VH: QVQLVQSGAEVKKPGASVKVSCKASGYNFTNYYMHWVRQAPGQGLEWMGVINPDGGSTSYAQKFRGRFIVTRDTSTTTLHMELRSLRSEDTAVYFCARGPDYVGISSPFDFWGQGTLVTVSS
VL: SHELTQPPSVPVSPGQTARITCSGDGLPKNYAYWYQQKSGQAPVLVIYEDRKRPSGIPERFSGSSSGTMATLTISGAQVEDEADYYCYSGDSNGNHWVFGGGTKLTVL
notes: recombinant human IgG
B4: binds.

B5: EBV_c101 (antibody, V domains shown)
VH: QVHLVQSGTEVKKPGASVKVSCKASGYTFIDYFIHWVRQAPGQGLEWMGIINPGGGSTSYAQKFRGRVTVTRDASTSTVYLELRSLRSDDSAVYYCARGTAVSTNLGLLFDLWGQGTLVSVSS
VL: SYELTQPPSVSVSPGQTARITCSGDDLPKNYAYWYQQKSGQAPTLVINEDNKRPSGIPERFSGSSSGTMATLTISGAQVEDEADYYCFSADSSGTHSVFGGGTKVTVL
notes: recombinant human IgG
B5: binds.

B6: EBV_c186 (antibody, V domains shown)
VH: QVHLVQSGTEVRKPGASVKISCETSGFNFSDYYVHWVRQAPGQGLEWMGIINAGGGSTSYAQRFRGRVTVTRDTSTRSVYMELRSLAPNDTAVYYCTRDRDQRLLFDYWGQGSLLIVSS
VL: SSELTQPPSVSVSPGQTARITCSGDALPKNYAYWYQQKSGQAPVLVIYEDNKRPSGIPERFSGSSSGTTATLTISGAQMEDEGDYYCYSKDRFGGGTKVTVL
notes: recombinant human IgG
B6: binds.

B7: EBV_c150 (antibody, V domains shown)
VH: QVLLVQSGAEVRKPGASVKLSCTASGYNFTNYYIHWVRQAPGQGLEWMGILNPTGGGTIYPHNFRGRVTMTRETSTSTAYMELKNLTSDDTAVYYCARVPPDDGYFDYWGQGALVTVSS
VL: SYEPTQPPSVSVSPGQTARITCSGDALPKRYVYWYQQKSGQAPALVIYDDTKRPSGIPERFSGSSSGTMATLTINGAQVEDEADYYCYTTGSSVSHVVFGGGTKLTVL
notes: recombinant human IgG
B7: binds.

B8: EBV_c40 (antibody, V domains shown)
VH: QVQMVQSGAEVKRPGDSVRVSCKASGYIFTNYHLHWVRQAPGQGLEWMGIVTPNGSRTNYAQKFKGRVIMSSEASTNTLYMDLSSLKSEDTAVYFCARARDLYGDSDFDYWGQGTPVMVSS
VL: SYELSQPPSVSVSPGQTASVSCSGDSLGDKYVSWYQQRPGQSPVVVIYQDRKRPSGIPERFSGSNSGKAATLTISGAQAVDEATYFCQAWESSNVVFGGGTTLTVL
notes: recombinant human IgG
B8: binds.
